Source: paper PMC2965252

Target: SF2/ASF (ΔRS domain) (UniProt Q07955 1-196)
Assay: EMSA

SF2/ASF (ΔRS domain), sequence (Q07955 1-196, stated change not applied): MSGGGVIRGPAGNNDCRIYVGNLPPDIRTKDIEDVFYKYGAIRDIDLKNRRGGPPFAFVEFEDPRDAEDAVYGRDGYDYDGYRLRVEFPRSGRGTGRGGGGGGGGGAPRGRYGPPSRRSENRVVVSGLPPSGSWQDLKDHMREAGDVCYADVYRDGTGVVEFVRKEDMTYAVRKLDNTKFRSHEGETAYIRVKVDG

B1: CD200 exon 2 RNA with wild-type ESE (ssRNA)
RNA: GUGAUCAGGAUGCCCUUCUC
binding result: binds
